# Data from publication doi:10.1101/008359, “TACC3–ch-TOG track the growing tips of microtubules independently of clathrin and Aurora-A phosphorylation” (bioRxiv, 2014).
# Key:
# [1] = molecular target: T1, His-NusA-ch-TOG(1517-1957) wild type (UniProt Q14008 1517-1957); assay: pull-down; His-NusA-ch-TOG(1517-1957) wild type and mutant proteins bound to Ni Sepharose beads, then incubated with TACC3(629-838); SDS-PAGE and Western blot with anti-TACC3 TACC domain antibody; His-NusA as tag binding control; settings: both partners purified
# T1 construct: held on Ni Sepharose beads by the His tag; source: recombinant, expressed and purified as stated in earlier work [11]; not shown: His, N-terminal, kept; NusA, N-terminal, kept
# T1 sequence (Q14008 1517-1957): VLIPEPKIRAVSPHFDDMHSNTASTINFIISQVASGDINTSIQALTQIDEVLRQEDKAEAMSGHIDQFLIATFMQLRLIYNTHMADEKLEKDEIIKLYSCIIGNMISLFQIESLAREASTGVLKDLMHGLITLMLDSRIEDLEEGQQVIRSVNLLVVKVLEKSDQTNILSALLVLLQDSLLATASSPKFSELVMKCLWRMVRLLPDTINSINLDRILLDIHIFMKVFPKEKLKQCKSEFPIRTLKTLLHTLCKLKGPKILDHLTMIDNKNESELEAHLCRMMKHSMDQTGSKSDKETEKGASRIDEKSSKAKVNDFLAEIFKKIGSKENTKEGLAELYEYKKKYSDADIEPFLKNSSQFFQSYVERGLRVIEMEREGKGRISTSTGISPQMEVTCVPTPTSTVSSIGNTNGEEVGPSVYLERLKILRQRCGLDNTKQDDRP
# ch-TOG(1517-1957) = molecular target: T2, ch-TOG(1517-1957) (UniProt Q14008 1517-1957); assay: pull-down; His-NusA-TACC3(629-838) bound to Ni Sepharose beads and incubated with ch-TOG proteins; His-NusA as tag binding control; settings: both partners purified
# T2 construct: source: recombinant, expressed and purified as stated in earlier work [11]
# T2 sequence (Q14008 1517-1957): as above
binding result [1],binding result (ch-TOG(1517-1957)),Binder
binds,,"TACC3(629-838) (domain or fragment, source: recombinant, expressed and purified as stated in earlier work [11]) not shown"
,binds,"His-NusA-TACC3(629-838) (domain or fragment, Held on Ni Sepharose beads by the His tag; source: recombinant, expressed and purified as stated in earlier work [11]; not shown: His, N-terminal, kept; NusA, N-terminal, kept) not shown"
